These results are taken from publication PMC11245488.

For the assay, the target named is extracellular domain of human AXL (corresponding to sAXL) fused to C-terminal Fc (UniProt P30530). Briefly: SEC-MALS; human sAXL-Fc in solution; protein-conjugate analysis (protein 140 kDa, glycans ~25 kDa, total 165 kDa); conditions in the Supplemental Material.

“extracellular domain of human AXL (corresponding to sAXL) fused to C-terminal Fc (from UniProt P30530 26-451) (Fc fusion)” came in with a stoichiometry N of 2.
